Data on one substance can be found in patent US20090175786A1.

The target of assay [1] is gastrin releasing peptide receptor (GRP-R), human (human) (UniProt P30550). The assay can be described thus: displacement of 125I-universal ligand, human tumour sections. In general terms: Displacement assays read how much labelled ligand stays bound in the presence of the test substance.
Assay [2] concerns the target neuromedin-B preferring receptor (NMB-R), human (human) (UniProt P28336). The description is as above.

Chain of gastrin releasing peptide receptor (GRP-R), human (human) (P30550 whole entry): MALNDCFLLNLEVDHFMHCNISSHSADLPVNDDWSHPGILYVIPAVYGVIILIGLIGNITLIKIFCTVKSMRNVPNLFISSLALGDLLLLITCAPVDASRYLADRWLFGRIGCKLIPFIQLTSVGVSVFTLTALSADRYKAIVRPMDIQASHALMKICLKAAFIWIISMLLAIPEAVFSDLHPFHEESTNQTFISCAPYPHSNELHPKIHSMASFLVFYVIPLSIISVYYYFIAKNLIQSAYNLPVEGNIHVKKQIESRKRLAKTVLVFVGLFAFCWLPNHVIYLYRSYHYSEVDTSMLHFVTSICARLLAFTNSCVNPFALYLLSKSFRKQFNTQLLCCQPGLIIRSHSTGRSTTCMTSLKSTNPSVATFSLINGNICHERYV
Chain of neuromedin-B preferring receptor (NMB-R), human (human) (P28336 whole entry): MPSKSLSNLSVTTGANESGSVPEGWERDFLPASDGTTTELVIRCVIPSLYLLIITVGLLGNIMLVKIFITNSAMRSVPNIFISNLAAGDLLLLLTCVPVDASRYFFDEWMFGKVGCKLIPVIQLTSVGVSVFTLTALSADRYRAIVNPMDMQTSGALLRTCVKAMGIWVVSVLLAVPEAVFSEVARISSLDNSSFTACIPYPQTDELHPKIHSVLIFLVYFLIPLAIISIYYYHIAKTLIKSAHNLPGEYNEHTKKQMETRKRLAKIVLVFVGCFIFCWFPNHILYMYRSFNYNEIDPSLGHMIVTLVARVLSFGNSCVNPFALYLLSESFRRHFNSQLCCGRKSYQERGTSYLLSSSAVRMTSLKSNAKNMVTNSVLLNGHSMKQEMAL

In the case of “[DTyr^6, βAla^11, Phe^13, Nle^14]-BBN(6-14) (peptide)”, the IC50 in assay [1] was determined as 0.7 nM; in assay [2] it was 0.8 nM.

The IC50 is the midpoint of a concentration-inhibition curve. Higher therefore signals lower potency.
